Measurements taken from the nanobody polyreactivity screen of Harvey et al. (2022).

Assay: yeast display, Sf9 membrane polyspecificity reagent, FACS + sequencing; frameworks hold sequencing errors
Summary of the method: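 Galactose induction of a Saccharomyces cerevisiae BJ5465 synthetic nanobody display library ran 36–48 hours. The cells were then stained for 1 hour at 4 °C with 10% biotinylated, detergent-solubilized Sf9 membrane reagent, pulled down on streptavidin microbeads and FACS-sorted into low and high (top ~1%) gates on expression and reagent-binding fluorescence. Labels for polyreactivity follow the gate of origin.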

Sequence	polyreactivity (PSR sort gate)
QVQLVESGGGLVQAGGSLRLSCAASGITFPFNAMGWYRQAPGKERELDAAISSTGSTNYADSVKGRFTISRDNAKNTVYLQMNSLKPEDTAVYYCNKRSNYRRGDGRRHLYWGQGTQVTVSS	low polyreactivity
QVQLVESGGGLVQAGGSLRLSCAASGITFPGNAMGWYRQAPGTERELVAVIRKSGTSTYYADSVKGRFTISRDNAKNTVYLQMNSLKPEDTAVYYCAAGGPSTLDDYWGQGTQVTVSS	low polyreactivity
QVQLVESGGGLVQAGGSLRLSCAASGITFPGYAMGWYRQAPGKERELVAAISIGGITYYADSVKGRFTISRDNAKNTVYLQMNSLKPEDTAVYYCAKDVTDPSSRSDPSGDDYWGQGTQVTVSS	low polyreactivity
QVQLVESGGGLVQAGGSLRLSCAASGITFPKYAMGWYRQAPGKERELVAAITKSGGSTYYADSVKGRFTISRDNAKNTVYLQMNSLKPEDTAVYYCAARPRYGEYDYWGQGTQVTVSS	high polyreactivity
QVQLVESGGGLVQAGGSLRLSCAASGITFPLYAMGWYRQAPGKERELVAAITSTGGTTYYADSVKGRFTISRDNAKNTVYLQMNSLKPEDTAVYYCAAEWLVYGYQRGYYYWGQGTQVTVSS	high polyreactivity
QVQLVESGGGLVQAGGSLRLSCAASGITFPPYAMGWYRQAPGKERELVAAISWSGTSTYYADSVKGRFTISRDNAKNPVYLQMNSLKPEDTAVYYCAAVPRHPYHDKYDYWGQGTQVTVSS	high polyreactivity
QVQLVESGGGLVQAGGSLRLSCAASGITFPVYVMGWYRQAPGKERELVAAISNGGDTYYADSVKGRFTISRDNAKNTVYLQMNSLKPVDTAVYYCAAYYSFPNDYGYEYDYWGQGTQVTVSS	low polyreactivity
QVQLVESGGGLVQAGGSLRLSCAASGITFPWYAMGWYRQAPGKERELVAAINLAGNTNYADSVKGRFTISRDNAKNNVYLQMNSLKPEDTSVYYCAARWRYKYTLGYWGQGTQVTVSS	high polyreactivity
QVQLVESGGGLVQAGGSLRLSCAASGITFPWYAMGWYRQAPGKERELVASKTSGASTNYADSVKGRFTISRDNAKNTVYLQMNSLKPEYSAVYYCARDWYSPVYWAAGYDAWGSGYDYWGQGTQVTVSS	high polyreactivity
QVQLVESGGGLVQAGGSLRLSCAASGITFQDYAMGWYRQAPGKERELVAAISKSGGSTYYADSVKGRFTISRDNAKNTVYLQINSLKPEDTAVYYCATRYLYSNRAYDYWGQGKQVTVSS	high polyreactivity
QVQLVESGGGLVQAGGSLRLSCAASGITFQRYALGWYRQAPGKERELVAAITRGGSTNYADSVKGRFTISRDNAKNTVYLQMNSLKPEDTAVYYCAAGARYGYGYWGQGTQVTVSS	high polyreactivity
QVQLVESGGGLVQAGGSLRLSCAASGITFQWYTMGWYRQAPGKERELVATISSGGSTNYADSVKGRFTISRDNAKNTVYLQMNSLKPEDTAVYYCAKQPTVYHHYGLGYWGQGTQVTVSS	low polyreactivity
QVQLVESGGGLVQAGGSLRLSCAASGITFRFNAMGWYRQAPGKERELVAAITSSGGRTYYADSVKGRFTISRDNAKNTVYLQMNSLKPEDTAVYYCNVRRLASYSFPYGYWGQGTQVTVSS	high polyreactivity
QVQLVESGGGLVQAGGSLRLSCAASGITFRGNAMGWYRQAPGKERELVATISSGGITNYADSVKGRFTISRDNAKNTVYLQMNSLKPEDTAVYDCNADNAYGFYRVKYEGYYWGQGTQVTVSS	low polyreactivity
QVQLVESGGGLVQAGGSLRLSCAASGITFRGYAMGWYRQAPGKERELVAAINSGGSTNYADSVKGRFTISRDNAKNTVYLQMNSLKPEDTAVYYCAAGWYYYWGNYLSYAYDYWGQGTQVTVSS	high polyreactivity
QVQLVESGGGLVQAGGSLRLSCAASGITFRGYAMGWYRQAPGKERELVAAISSGGRTNYADSVKGRFTISRDNAKNTVYLQMNSLKPEDTAVYYCAARYRREKAGYRWDIFYWGQGTQVTVSS	high polyreactivity
QVQLVESGGGLVQAGGSLRLSCAASGITFRIYAMGWYRQAPGKEREFVAAINQRGGSTYYADSVKGRFTISRDNAKNTVYLQMNSLKPEDTAVYYCNADYSYVGEYDYWGQGTQVTVSS	low polyreactivity
QVQLVESGGGLVQAGGSLRLSCAASGITFRKYVMGWYRQAPGKERELVATITRNGGTTNYADSVKGRFTISRDNAKNTVYLQMNSLKPEDTAVYYCAAVRRDYDDVYTEYWGQGTQVTVSS	high polyreactivity
QVQLVESGGGLVQAGGSLRLSCAASGITFRNYAMGWYRQAPGKERELVADITTGGSTYADSVKGRFTISRDNAKNTVYLQMNSLKPEDTAVYDCAADRDFRTPRLYYWGQGTQVTVSS	low polyreactivity
QVQLVESGGGLVQAGGSLRLSCAASGITFRRNAMGWYRQAPGTERELVAGISGRGGSTYYADSVKGRFTISRDNAKNTVYLQMNSLKPEDTAVYYCAAVRFRTPTLEYWTRYDYWGQGTQVTVSS	high polyreactivity
QVQLVESGGGLVQAGGSLRLSCAASGITFRRSAMGWYRQAPGKEREVVAAISIRGGRTYYADAVKGRFTISRDNAKNTVYLQMNSLIPEDTAVYYCAADGVYALDVESDYWGLGTQVTVSS	high polyreactivity
QVQLVESGGGLVQAGGSLRLSCAASGITFRRYAMGWYRQAPGKESELVAAITSSGGSTYYADSVKGRFTISRDNAKNTVYLLMISLKPEDTAVYYCAAAFFSQYYLYEYWGQGTQVTVSS	high polyreactivity

Sequence	polyreactivity (PSR sort gate)
QVQLVESGGGLVQAGGSLRLSCAASGITFRRYTMGWYIQAPGKERELVATISLSDGNTYYADSVKGRFTISRDNAKNTVYLQMNSLKPEDTAVYYCNARHTWHQTYDYWGQGTQVTVSS	low polyreactivity
QVQLVESGGGLVQAGGSLRLSCAASGITFRRYTMGWYRQAPGKERELVASISSTGSTNYADSVKGRFTISRDNAKNTVYLQMNSLKPEDTAVYYCAARRPYPYVGYEYWGQGTQVTVSS	high polyreactivity
QVQLVESGGGLVQAGGSLRLSCAASGITFRRYTMGWYRQPPGKERELVATISLSDGNTYYADSVKGRFTISRDNAKNTVYLQMNSLKPEDTAVYYCNARHTWHQTYDYWGQGTQVTVSS	low polyreactivity
QVQLVESGGGLVQAGGSLRLSCAASGITFRSNAMGWYRQAPGKERELVATISYRGASTYYADSVKGRFTISRDNAKNTVYLQMNSLKPEYTSVYYCNVRNRYWRSRVDYWGQGTQVTVSS	high polyreactivity
QVQLVESGGGLVQAGGSLRLSCAASGITFRSYAMGWYRQAPGKERELVATISGRGGRTYYADSVKGRFTISRDNAKNTVYLQMNSLKPEDTAVYYCAARLHSYGVGVDYWGQGTQVSVSS	high polyreactivity
QVQLVESGGGLVQAGGSLRLSCAASGITFRSYAMGWYRQAPGKERELVATISWSGGITYYADSVKGRFTISRDNAKITVYLQMNSLKPEDTAVYYCAKASQSWGRDDYYYWGQGTQLTVSS	low polyreactivity
QVQLVESGGGLVQAGGSLRLSCAASGITFRSYEMGWYRAAPAKERELVAAISSGGSRTYYADSVKGRYTISRDNAKKTVYLQMNSLKPEDTAVYYCAATDRSDVYKGAYYYWGQGTQVTVSS	high polyreactivity
QVQLVESGGGLVQAGGSLRLSCAASGITFRTYAMGWYRQAPGKERELVAAISGSSTSTYYADSVKGRFTISRDNAKNTVYLLMNSLKPEDTAVYYCAAGYRVSVYRYYYWGQGTQVTVSS	high polyreactivity
QVQLVESGGGLVQAGGSLRLSCAASGITFRTYAMGWYRQAPGKERELVAAISGSSTSTYYADSVKGRFTISRDNAKNTVYLQLNSLKPEDSAVYYCAAGYRVSVYRYYYWGQGTQVTVSS	high polyreactivity
QVQLVESGGGLVQAGGSLRLSCAASGITFRYYAMGWYRQAPGKERELVAAISYSGGSTYYADSVKGRFTISRDNAKNTVYLQMNRLKPEDTAVYYCNRVWTRLVTYPEYDYWGQGTQVTVSS	high polyreactivity
QVQLVESGGGLVQAGGSLRLSCAASGITFRYYAMGWYRQAPGKERELVASITSGGVNTYYADSVKGRFTISRDNAKNTVYLQMNSLKPEDTAVYYCATRFSYSALGGYDYWGQGTQVTVSS	low polyreactivity
QVQLVESGGGLVQAGGSLRLSCAASGITFRYYAMGWYRQAPGKERELVATINWSGGTTHYADSVKGRFTISRENAKNTVYLQMNSLKPEDTAVYYCAADPWQYKLGWPPFTYDYWGQGTQVTVSS	high polyreactivity
QVQLVESGGGLVQAGGSLRLSCAASGITFRYYAMGWYRQAPGKERELVAVISTSGGSTYYADSVKGRFTISRDNAKNTVFLQMNSLKPEDTAVYYCAVVWPYYERYYYWGQGTQVTVSS	high polyreactivity
QVQLVESGGGLVQAGGSLRLSCAASGITFRYYTMGWYRQAPGKERELVAAITTGGSTNYADSVKGRFTISRDNAKNTVYLQMNSLKPEDTAVYYCAATYKYITRGYLYDYWGQGTQVTVSS	high polyreactivity
QVQLVESGGGLVQAGGSLRLSCAASGITFSEYAMGLYRQAPGKERELVAAITSGGNTYYADSVKGRFTISRDNAKNTVYLQMNSLKPEDTAVYYCAATFSSAFAYYYWGQGTQVTVSS	low polyreactivity
QVQLVESGGGLVQAGGSLRLSCAASGITFSFYALGWYRHAPGKERELVAAISRGGASTYYADSVKGRFTISRDNAKNTVYLQMNSLKPEDSAVYYCAALSVDERYDYWGQGTQVTVSS	low polyreactivity
QVQLVESGGGLVQAGGSLRLSCAASGITFSFYAMGWYRQAPGKERELVAAISWNGDSTYYADSVKGRFTISRDNAKNTVYLQMNSLKPEDTAVYYCNAEFVAWYYYEDQDGDYWGQGTQVTVSS	high polyreactivity
QVQLVESGGGLVQAGGSLRLSCAASGITFSGNAMGWYRQAPGKARELVATISQSGGRTYYADSVNGRFTISRDNAKHTVYLQMNSLKPEDTAVYYCARRRMRYTDRGYYYWGQGTQVTVSS	high polyreactivity
QVQLVESGGGLVQAGGSLRLSCAASGITFSGYDMGWYRQAPGKERELVADITISTGSTYYADSVKGRFTISRDNANNTVYLQMNSLKPEDTAVYYCAADWQQDRTVVLPSWGHAYDSWGQGTQVTVSS	low polyreactivity
QVQLVESGGGLVQAGGSLRLSCAASGITFSKYAMGWFRHAPGKERELFASITWSGTSTYYADSVKGRFTISRDNAKNTVYLQMKSLKPEDTAVYYCAADGWGTFWRAQNGYGYEHDYWGKGTQVTVSS	low polyreactivity
QVQLVESGGGLVQAGGSLRLSCAASGITFSLYAMGWYRQAPGKERELVAAIDWSSGSTYYADSVKGRFTISRDNAKNTVYLQMNSLKPEDTAVYYCAAEYVHHASGDFSTLYYYWGQGTQVTVSS	low polyreactivity
